Source: US20220259593A1, “CONTROL OF MAMMALIAN GENE DOSAGE USING CRISPR” (The Regents of the University of California, priority 2019, published 2022)

Test system: K562 CRISPRi cells
Test: Constant region variant library pooled growth screen, K562
Format: cell-based, human
Settings: sgRNA constant region variants; activity relative to the original, un-modified constant region cr995
Outline: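 Library of sgRNA constant-region variants, each paired with 36 targeting sequences (essential-gene and non-targeting), transduced in duplicate into K562 CRISPRi cells, puromycin-selected and grown 4–8 days at >2000× coverage. Activity per variant is its growth phenotype normalised to the same targeting sequence with unmodified constant region.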

Molecule	Mean relative activity
cr241 (nucleic acid, listed as DNA, chemistry not fully specified) guide: GTTTAAGAGCTAAGCTGGAAACAGCATAGCAACTTTAAATAAGGCTAGTCCGTTATCAACATGAAAATGTGGCACCGAGTCGGTGCT	0.03304
cr593 (nucleic acid, listed as DNA, chemistry not fully specified) guide: GTTTAAGAGCTAAGCTGGAAACAGCATAGCAAGTTTAAATAAGGCTAGTCCGTTATCACCTTGAAAAAGGGGCACCGAGTCGGTGCT	1.035
cr616 (nucleic acid, listed as DNA, chemistry not fully specified) guide: GTTTAAGAGCTAAGCTGGAAACAGCATAGCAAGTTTAAATAAGGCTAGTCCGTTATCAAGATGAAAATCTGGCACCGAGTCGGTGCT	1.035
cr988 (nucleic acid, listed as DNA, chemistry not fully specified) guide: GTTTAAGAGCTAAGCTGGAAACAGCATAGCAACTTTAAATAAGGCTAGTCCGTTATCAAGTTGAAAAACTGGCACCGAGTCGGTGCT	0.0305
cr830 (nucleic acid, listed as DNA, chemistry not fully specified) guide: GTTTAAGAGCTAAGCTGGAAACAGCATAGCAAGTTTAAATAAGGCTAGGCCGTTATCAACTTGAAAAAGTGTCACCGAGTCGGTGCT	0.02925
cr711 (nucleic acid, listed as DNA, chemistry not fully specified) guide: GTTTAAGAGCTAAGCTGGAAACAGCATAGCAAGGTTAAATAAGGCTAGTCCGTTATCAACTTGAAAAAGTGCCACCGAGTCGGTGGT	0.0267
cr314 (nucleic acid, listed as DNA, chemistry not fully specified) guide: GTTTAAGAGCTAAGCTGGAAACAGCATAGCAAGGTTAAATAAGGCTAGTCCGTTATCAACTTGAAAAAGTGGAACCGAGTCGGTTCT	0.03303
cr627 (nucleic acid, listed as DNA, chemistry not fully specified) guide: GTTTAAGAGCTAAGCTGGAAACAGCATAGCAAGTTTAAATAATGCTAGTCAGTTATCAACTTGAGAAAGTGGCACCGAGTCGGTGCT	0.02763
cr301 (nucleic acid, listed as DNA, chemistry not fully specified) guide: GTTTAAGAGCTAAGCTGGAAACAGCATAGCAACTTTAAATAAGGCTAGTCCGTTATCAACTTGAAAAAGTGGCACCGATTCGGTGCT	0.03132
cr007 (nucleic acid, listed as DNA, chemistry not fully specified) guide: GTATAAGAGCTAAGCTGGAAACAGCATAGCAAGTTTAAATAAGGCTAGTCCGTTATCAACTTGAAAAAGTGGCACCGAGTCGGTGCT	0.03285
cr570 (nucleic acid, listed as DNA, chemistry not fully specified) guide: GTTTAAGAGCTAAGCTGGAAACAGCATAGCAACTTTAAATAAGGCTAGTCCGTTATCAACTTGAAAAAGTGGCTCCGAGTCGGAGCT	0.02846
cr313 (nucleic acid, listed as DNA, chemistry not fully specified) guide: GTTTAAGAGCTAAGCTGGAAACAGCATAGCAAGTTTAAATAAGGCTAGTCCGTTATCAACTTGAAAAAGTGGGTGGGAGTCGCTCCT	0.03202
cr151 (nucleic acid, listed as DNA, chemistry not fully specified) guide: GTTTAAGAGCTAAGCTGGAAACAGCATAGCAACTTTAAATAAGGCTAGTCCGGTATCAACTTGAAAAAGTGGCACCGAGTCGGTGCT	0.03186
cr095 (nucleic acid, listed as DNA, chemistry not fully specified) guide: GTATAAGTGCTAAGCTGGAAACAGCATAGCAAGTTTAAATAAGGCTAGTCCGTTATCAACTTGAAAAAGTGGCACCGAGTCGGTGCT	0.02974
cr048 (nucleic acid, listed as DNA, chemistry not fully specified) guide: TTTCAAGAGCTAAGCTGGAAACAGCATAGCAAGTTTAAATAAGGCTAGTCCGTTATCAACTTGAAAAAGTGGCACCGAGTCGGTGCT	0.02761
cr378 (nucleic acid, listed as DNA, chemistry not fully specified) guide: GTTTAAGAGCTAAGCTGGAAACAGCATAGCAAGTTTAAATGAGGCTAGTCCGTTATCAACTTGAAAAAGTGGCACCGAGTCGGTGCT	0.02893

Molecule	Mean relative activity
cr716 (nucleic acid, listed as DNA, chemistry not fully specified) guide: GTTTAAGAGCTAAGCTGGAAACAGCATAGCCATTTTAAATAAGGCTAGTCCGTTATCAACTTGAAAAAGTGGCACCGAGTCGGTGCT	0.03033
cr638 (nucleic acid, listed as DNA, chemistry not fully specified) guide: GTTTAAGAGCTAAGCTGGAAACAGCATAGCAAGCTTAAATAAGGGTACTCCGTTATCAACTTGAAAAAGTGGCACCGAGTCGGTGCT	0.03012
cr933 (nucleic acid, listed as DNA, chemistry not fully specified) guide: GTTTAAGAGCTAAGCTGGAAACAGCATAGCAAGGTTAAATAAGGCTAGTCCGTTATCAACTTGAAAAAGTGTCACCGAGTCGGTGAT	0.0286
cr357 (nucleic acid, listed as DNA, chemistry not fully specified) guide: GTTTAAGAGCTAAGCTGGAAACAGCATAGCAAGGTTAAATAAGGCTAGTCCGTTATCAACTTGAAAAAGTGGCTCCGAGTCGGAGCT	0.03253
cr085 (nucleic acid, listed as DNA, chemistry not fully specified) guide: GTTTTTGAGCTAAGCTGGAAACAGCATAGCAAGTTTAAATAAGGCTAGTCCGTTATCAACTTGAAAAAGTGGCACCGAGTCGGTGCT	0.02666
cr571 (nucleic acid, listed as DNA, chemistry not fully specified) guide: GTTTAAGAGCTAAGCTGGAAACAGCATAGCAAGGTTAAATAAGGCTAGTCCGTTATCAACTCGAAAGAGTGGCACCGAGTCGGTGCT	0.03194
cr880 (nucleic acid, listed as DNA, chemistry not fully specified) guide: GTTTAAGAGCTAAGCTGGAAACAGCATAGCAAGGTTAAATAAGGCTAGTCCGTTATCAACTTGAAAAAGTGGCATCGAGTCGATGCT	0.03183
cr574 (nucleic acid, listed as DNA, chemistry not fully specified) guide: GTTTAAGAGCTAAGCTGGAAACAGCATAGCAAGTTTCAATAAGGCTAGTCCGTTATCAACTTGAAAAAGTGGCACCGAGTCGGTGCT	0.03217
cr010 (nucleic acid, listed as DNA, chemistry not fully specified) guide: GTTAAAGAGCTAAGCTGGAAACAGCATAGCAAGTTTAAATAAGGCTAGTCCGTTATCAACTTGAAAAAGTGGCACCGAGTCGGTGCT	0.02976
cr641 (nucleic acid, listed as DNA, chemistry not fully specified) guide: GTTTAAGAGCTAAGCTGGAAACAGCATAGCAAGGTTAAATAAGGCTAGTCCGTTATCAACTTGAAAAAGTGGCACCGAGTCGGTGCT	0.02687
cr096 (nucleic acid, listed as DNA, chemistry not fully specified) guide: GTTTGTGAGCTAAGCTGGAAACAGCATAGCAAGTTTAAATAAGGCTAGTCCGTTATCAACTTGAAAAAGTGGCACCGAGTCGGTGCT	0.02764
cr012 (nucleic acid, listed as DNA, chemistry not fully specified) guide: GTTGAAGAGCTAAGCTGGAAACAGCATAGCAAGTTTAAATAAGGCTAGTCCGTTATCAACTTGAAAAAGTGGCACCGAGTCGGTGCT	0.02769
cr009 (nucleic acid, listed as DNA, chemistry not fully specified) guide: GTGTAAGAGCTAAGCTGGAAACAGCATAGCAAGTTTAAATAAGGCTAGTCCGTTATCAACTTGAAAAAGTGGCACCGAGTCGGTGCT	0.02783
cr312 (nucleic acid, listed as DNA, chemistry not fully specified) guide: GTTTAAGAGCTAAGCTGGAAACAGCATAGCAAGGTTAAATAAGGCTAGTCCGTTATCAACGTGAAAACGTGGCACCGAGTCGGTGCT	0.03032
cr757 (nucleic acid, listed as DNA, chemistry not fully specified) guide: GTTTAAGAGCTAAGCTGGAAACAGCATAGCAACTTTAAATAAGGCTAGTCCGTTATCAACTAGAAATAGTGGCACCGAGTCGGTGCT	0.02851
